Biological target: Mycobacterium tuberculosis cytochrome bcc complex (QcrCAB) (M. tuberculosis) (UniProt P9WP35)
Assay: pyridine hemochrome heme quantification

Mycobacterium smegmatis cytochrome aa3 (cytochrome oxidase) (complex)
stoichiometry N: 1

— paper PMC4505504
